Data as given in patent publication US20030078191A1 (published 2003).

B1: LexA alone (pLexA vector, SHp40) (other)
chain: MKALTARQQEVFDLIRDHISQTGMPPTRAEIAQRLGFRSPNAAEEHLKALARKGVIEIVSGASRGIRLLQEEEEGLPLVGRVAAGEPLLAQQHIEGHYQVDPSLFKPNADFLLRVSGMSMKDIGIMDGDLLAVHKTQDVRNGQVVVARIDDEVTVKRLKKQGNKVELLPENSEFKPIVVDLRQQSFTIEGLAVGVIRNGDWL
B2: LexA-OrfE fusion (kil as a fusion to the LexA DNA-binding protein) (other)
chain: MKALTARQQEVFDLIRDHISQTGMPPTRAEIAQRLGFRSPNAAEEHLKALARKGVIEIVSGASRGIRLLQEEEEGLPLVGRVAAGEPLLAQQHIEGHYQVDPSLFKPNADFLLRVSGMSMKDIGIMDGDLLAVHKTQDVRNGQVVVARIDDEVTVKRLKKQGNKVELLPENSEFKPIVVDLRQQSFTIEGLAVGVIRNGDWLMIAHHFGTDEIPRQCVTPGDYVLHEGRTYIASANNIKKRKLYIRNLTTKTFITDRMIKVFLGRDGLPVKAESW
B3: Gal4bd-FtsZ(311-383) fusion (pAS2-1-FtsZ(311-383), SHp102) (other)
chain: MKLLSSIEQACDICRLKKLKCSKEKPKCAKCLKNNWECRYSPKTKRSPLTRAHLTEVESRLERLEQLFLLIFPREDLDMILKMDSLQDIKALLTGLFVQDNVNKDAVTDRLASVETDMPLTLRQHRISATSSSEESSNKGQRQLTVSVATGIGMDKRPEITLVTNKQVQQPVMDRYQQHGMAPLTQEQKPVAKVVNDNAPQTAKEPDYLDIPAFLRKQAD
B4: Gal4bd-OrfE fusion (pAS2-1 fusion of kil) (other)
chain: MKLLSSIEQACDICRLKKLKCSKEKPKCAKCLKNNWECRYSPKTKRSPLTRAHLTEVESRLERLEQLFLLIFPREDLDMILKMDSLQDIKALLTGLFVQDNVNKDAVTDRLASVETDMPLTLRQHRISATSSSEESSNKGQRQLTVSMIAHHFGTDEIPRQCVTPGDYVLHEGRTYIASANNIKKRKLYIRNLTTKTFITDRMIKVFLGRDGLPVKAESW
notes: also called Gal4bd-Kil

Columns and labels:
[1] = molecular target: T1, B42-FtsZ fusion (pB42-FtsZ, SHp256) (Escherichia coli, UniProt P0A9A6 1-383); test: yeast two-hybrid (LexA/B42), LEU2 and lacZ reporters, haploids and diploids
T1 construct: Yeast two-hybrid prey; entire FtsZ gene cloned into pB42
T1 sequence: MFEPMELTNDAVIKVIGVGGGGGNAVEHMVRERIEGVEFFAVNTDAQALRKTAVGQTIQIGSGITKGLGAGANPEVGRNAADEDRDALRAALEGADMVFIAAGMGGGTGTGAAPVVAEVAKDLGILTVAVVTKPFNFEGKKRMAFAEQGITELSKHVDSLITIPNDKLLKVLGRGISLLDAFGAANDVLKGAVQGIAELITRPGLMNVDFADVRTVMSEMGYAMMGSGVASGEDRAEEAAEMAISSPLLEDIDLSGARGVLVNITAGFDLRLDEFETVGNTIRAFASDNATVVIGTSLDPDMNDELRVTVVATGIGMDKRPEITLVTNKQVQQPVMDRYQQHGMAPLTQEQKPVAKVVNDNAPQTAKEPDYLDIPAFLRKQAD

[2] = molecular target: T1, B42-FtsZ fusion (pB42-FtsZ, SHp256); test: yeast two-hybrid (LexA fusion x B42 fusion), growth on plates without histidine
[3] = molecular target: Gal4ad-ZipA(35-185) fusion (pGAD424 fusion) (Escherichia coli); test: cell-based or functional assay
[4] = molecular target: Gal4ad-ZipA(62-328) fusion (pGAD424 fusion) (Escherichia coli); test: cell-based or functional assay
[5] = molecular target: T2, Gal4 activation domain alone (pGAD424 vector, no fusion) (UniProt P04386 768-881); test: cell-based or functional assay
T2 sequence (looked up): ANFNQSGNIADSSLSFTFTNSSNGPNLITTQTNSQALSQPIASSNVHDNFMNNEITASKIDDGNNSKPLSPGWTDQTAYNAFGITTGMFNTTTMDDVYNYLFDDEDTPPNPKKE

[6] = molecular target: Gal4ad-ZipA(185-328) fusion (pGAD424 fusion) (Escherichia coli, UniProt P77173 185-328); test: cell-based or functional assay
[7] = molecular target: Gal4ad-ZipA(35-284) fusion (pGAD424 fusion) (Escherichia coli); test: cell-based or functional assay
[8] = molecular target: Gal4ad-ZipA(185-302) fusion (pGAD424 fusion) (Escherichia coli); test: cell-based or functional assay
Gal4ad-FtsA fusion = molecular target: T3, Gal4ad-FtsA fusion (UniProt P0ABH0 1-420); test: yeast two-hybrid, Gal4 system
T3 sequence: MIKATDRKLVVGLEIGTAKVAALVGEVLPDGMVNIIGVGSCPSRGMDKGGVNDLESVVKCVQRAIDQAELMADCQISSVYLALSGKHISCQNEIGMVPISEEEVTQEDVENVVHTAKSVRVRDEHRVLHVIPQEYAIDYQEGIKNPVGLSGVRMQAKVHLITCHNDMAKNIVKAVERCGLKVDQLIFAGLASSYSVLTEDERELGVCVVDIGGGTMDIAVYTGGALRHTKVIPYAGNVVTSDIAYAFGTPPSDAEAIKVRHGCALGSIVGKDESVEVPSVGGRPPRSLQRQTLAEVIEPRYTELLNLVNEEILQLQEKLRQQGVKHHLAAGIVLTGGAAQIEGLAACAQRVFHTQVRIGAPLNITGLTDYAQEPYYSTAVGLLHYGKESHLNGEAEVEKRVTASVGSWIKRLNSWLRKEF

Binder	binding result [1]	binding result [2]	beta-galactosidase (lacZ reporter) activity, MUG fluorescence, yeast two-hybrid [3]	beta-galactosidase (lacZ reporter) activity, MUG fluorescence, yeast two-hybrid [4]	beta-galactosidase (lacZ reporter) activity, MUG fluorescence, yeast two-hybrid [5]	beta-galactosidase (lacZ reporter) activity, MUG fluorescence, yeast two-hybrid [6]	beta-galactosidase (lacZ reporter) activity, MUG fluorescence, yeast two-hybrid [7]	beta-galactosidase (lacZ reporter) activity, MUG fluorescence, yeast two-hybrid [8]	binding result (Gal4ad-FtsA fusion)
B1	no binding	–	–	–	–	–	–	–	–
B2	–	no binding	–	–	–	–	–	–	–
B3	–	–	971 units	7430 units	997 units	2630 units	8620 units	828 units	–
B4	–	–	1140 units	8530 units	1230 units	1910 units	7580 units	721 units	no binding
